Results: patent US20150274826A1 (ARCH ONCOLOGY, published 2015)

T1: mouse CD47 (mouse, UniProt Q61735 19-303)
T1 construct: whole, on cells; also called CD47 on mouse RBCs; CD47 on 4T1 cells
T1 sequence (looked up): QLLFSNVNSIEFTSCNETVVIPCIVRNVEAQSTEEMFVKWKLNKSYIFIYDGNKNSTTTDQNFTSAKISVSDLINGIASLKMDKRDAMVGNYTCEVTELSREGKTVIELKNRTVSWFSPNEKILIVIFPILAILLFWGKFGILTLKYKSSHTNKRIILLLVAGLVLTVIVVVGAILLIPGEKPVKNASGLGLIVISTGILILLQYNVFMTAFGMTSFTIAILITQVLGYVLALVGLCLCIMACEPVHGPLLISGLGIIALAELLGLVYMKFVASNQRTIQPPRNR

B1: Clone 1.1 (hum01 IgG1 N297Q) (antibody)
heavy: QVQLQESGPGLVKPSQTLSLTCTVSGYTFTNYYVFWVRQARGQRLEWIGDINPVNGDTNFNEKFKNRVTISADKSISTAYLQWSSLKASDTAMYYCARGGYTMDYWGQGTLVTVSSASTKGPSVFPLAPSSKSTSGGTAALGCLVKDYFPEPVTVSWNSGALTSGVHTFPAVLQSSGLYSLSSVVTVPSSSLGTQTYICNVNHKPSNTKVDKKVEPKSCDKTHTCPPCPAPELLGGPSVFLFPPKPKDTLMISRTPEVTCVVVDVSHEDPEVKFNWYVDGVEVHNAKTKPREEQYQSTYRVVSVLTVLHQDWLNGKEYKCKVSNKALPAPIEKTISKAKGQPREPQVYTLPPSR
light: DIVMTQTPLSLPVTPGEPASISCRSSQSLVHSNGNTYLHWYQQKPGKAPKLLIYKVSYRFSGVPDRFSGSGSGTDFTLKISRVEAEDVGVYYCSQNTHVPRTFGQGTKVEIKRTVAAPSVFIFPPSDEQLKSGTASVVCLLNNFYPREAKVQWKVDNALQSGNSQESVTEQDSKDSTYSLSSTLTLSKADYEKHKVYACEVTHQGLSSPVTKSFNRGEC
notes: Fc mutant of Clone 1, IgG1 N297Q; also called Cl 1.1
B2: Clone 13.1 (hum13 IgG1 N297Q) (antibody)
heavy: EVQLVQSGAEVKKPGESLRISCKGSGYTFTNYYVFWIRQSPSRGLEWLGDINPVNGDTNFNEKFKNRVTITADKSTSTAYMELSSLRSEDTAVYYCARGGYTMDYWGQGTLVTVSSASTKGPSVFPLAPSSKSTSGGTAALGCLVKDYFPEPVTVSWNSGALTSGVHTFPAVLQSSGLYSLSSVVTVPSSSLGTQTYICNVNHKPSNTKVDKKVEPKSCDKTHTCPPCPAPELLGGPSVFLFPPKPKDTLMISRTPEVTCVVVDVSHEDPEVKFNWYVDGVEVHNAKTKPREEQYQSTYRVVSVLTVLHQDWLNGKEYKCKVSNKALPAPIEKTISKAKGQPREPQVYTLPPSR
light: B1 light
notes: Fc mutant of Clone 13, IgG1 N297Q

How the values were obtained:
[1] = molecular target: T1, mouse CD47; test: cell-based ELISA on mouse 4T1 cells, apparent Kd
Procedure: (§1) OV10 cells are grown in IMDM medium containing 10% heat inactivated fetal bovine serum (BioWest; S01520) and 4T1 cells are grown in RMPI medium containing 10% heat inactivated fetal bovine serum (BioWest; S01520). One day before assay, 3×10⁴ cells are plated in 96 well cell bind plates (Corning #3300, VWR #66025-626) so that they are 95-100% confluent at the time of assay. Cells are washed and various concentrations of purified antibodies added in either IMDM or RPMI at 37° C. for 1 hour in […]. Cells are then washed with media and incubated for an additional hour at 37° C. with HRP labeled secondary anti-human antibody (Promega) diluted 1/2500 in media. Cells are washed three times with PBS, and the peroxidase substrate 3,3′,5,5′-tetramethylbenzidine is added (Sigma; Catalog #T4444). Reactions are terminated by the addition of HCl to 0.7N, and absorbance at 450 nm is determined using a Tecan model Infinite M200 plate reader. The apparent binding affinities of these clones to human and mouse cells is determined by non-linear fits (Prism GraphPad software). […] Agglutination of human RBCs is assessed following incubation of human RBCs with various concentrations of humanized blocking only clones. Blood is diluted (1:50) and washed 3 times with PBS/EDTA/BSA. RBCs are added to U-bottomed 96 well plates with equal volumes of the antibodies (75 μl) and incubated for 3 hrs at 37° C. and overnight at 4° C.

[2] = molecular target: T2, human CD47 (human, UniProt Q08722 19-323); test: cell-based ELISA on human OV10 cells, apparent Kd
T2 construct: whole, on cells; also called CD47 on human RBCs; CD47 on OV10 cells
Procedure: as §1

[3] = molecular target: T2, human CD47; test: flow cytometry on human RBCs, apparent Kd, non-linear fit
Procedure: (§2) RBCs are incubated for 60 minutes on ice with tissue culture supernatants containing the secreted humanized antibodies at a concentration of 10 ng/ml in a solution of phosphate buffered saline, pH 7.2, 2.5 mM EDTA (PBS+E), or with various concentrations of purified antibodies. Cells are then washed with cold PBS+E, and incubated for an additional hour on ice with FITC labeled donkey anti-human antibody (Jackson Immuno Research Labs, West Grove, Pa.; Catalogue #709-096-149) in PBS+E. Cells are then washed with PBS+E, and antibody binding is analyzed using a BD FACSAria Cell Sorter (Becton Dickinson) or a C6 Accuri Flow Cytometer (Becton Dickinson). Antibody binding is quantitated by comparison of mean fluorescence values relative to that of chimeric antibody >VxP037-01LC (SEQ ID NO:7))/>VxPO37-01HC (SEQ ID NO:57). The mean fluorescence value for each antibody is divided by the mean fluorescence value for the chimeric antibody.

[4] = molecular target: T2, human CD47; test: flow cytometry on human RBCs, non-linear fit of median fluorescence
Procedure: as §2

T2 sequence (Q08722 19-323): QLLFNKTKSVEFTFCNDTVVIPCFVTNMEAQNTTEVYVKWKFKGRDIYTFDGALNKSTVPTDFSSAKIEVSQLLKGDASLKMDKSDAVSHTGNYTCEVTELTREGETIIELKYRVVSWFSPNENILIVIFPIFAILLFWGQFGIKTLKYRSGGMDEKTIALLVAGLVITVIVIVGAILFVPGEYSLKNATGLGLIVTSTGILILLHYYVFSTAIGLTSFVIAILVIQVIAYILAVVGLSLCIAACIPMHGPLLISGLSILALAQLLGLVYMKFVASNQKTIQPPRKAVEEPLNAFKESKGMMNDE

Row | Kd [1] [nM] | Kd [2] [nM] | Kd [3] [nM] | Kd [4] [µg/mL] | Binder
1 | 0.132 | 0.148 | 2.04 | 0.307 | B1
2 | 0.0867 | 0.0886 | 1.21 | 0.183 | B2
